The supplement of paper PMC10567573

B1: ZER1 (parent)
chain: PILRLLPQGISPVSQHWATWALYN
B2: POMT2 (parent)
chain: YHEAPMTRKHYQVTGYGINGTGDS

Variants of: B1
Experiment: protein stability index of a GFP-peptide fusion (GPS, HEK-293T) (PSI 1-6); higher = more stable
Details: c terminus: a fixed tail appended
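Note: lentivirally expressed fusions sorted by FACS into six bins by GFP to DsRed ratio, PSI derived from sequencing read proportions per bin multiplied by bin number.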

Protein stability index, by site and new letter:
N24: R 4.17 | T 2.25 | V 3.21 | W 2.32

Variants of: B2
Experiment: as above
Details: c terminus: a fixed tail appended

Protein stability index of substitutions, site by site:
Y1: A 3.68 | C 3.05 | D 3.94 | E 4.3 | F 1.89 | G 3.53 | H 3.58 | I 4.03 | K 3.97 | L 3.47 | M 3.71 | N 3.5 | P 4.07 | Q 3.9 | R 3.51 | S 3.68 | T 3.91 | V 3.49 | W 3.72
H2: A 2.56 | C 1.97 | D 3.98 | E 3.95 | F 3.38 | G 2.92 | I 2.21 | K 3.57 | L 3.07 | M 3.09 | N 3.5 | P 2.99 | Q 3.33 | R 3.81 | S 3.39 | T 2.58 | V 1.89 | W 2.72 | Y 2.75
E3: A 2.46 | C 2 | D 2.15 | F 1.52 | G 2.75 | H 1.77 | I 1.73 | K 1.9 | L 1.61 | M 1.67 | N 2.38 | P 2.87 | Q 1.34 | R 1.47 | S 1.6 | T 2.32 | V 2.22 | W 1.44 | Y 1.77
A4: C 2.5 | D 2.95 | E 2.93 | F 2.68 | G 2.37 | H 2.04 | I 2.42 | K 2.18 | L 1.91 | M 1.49 | N 1.69 | P 1.96 | Q 2.68 | R 2.45 | S 1.92 | T 2.21 | V 2.96 | W 2.2 | Y 3.11
P5: A 2.62 | C 2.31 | D 2.72 | E 3.17 | F 2.77 | G 2.51 | H 2.74 | I 3.27 | K 2.36 | L 1.89 | M 2.79 | N 2.32 | Q 2.84 | R 2.29 | S 2.69 | T 2.02 | V 2.14 | W 1.63 | Y 1.73
M6: A 2.48 | C 2 | D 2.36 | E 2.56 | F 1.82 | G 2.38 | H 1.69 | I 2.83 | K 2.55 | L 2.41 | N 2.15 | P 2.55 | Q 2.68 | R 2.7 | S 2.59 | T 2.43 | V 2.67 | W 1.42 | Y 1.98
T7: A 2.33 | C 2.2 | D 2.66 | E 2.39 | F 1.92 | G 2.08 | H 2.03 | I 2.45 | K 1.86 | L 1.79 | M 2.17 | N 1.82 | P 2.42 | Q 2.57 | R 1.87 | S 2.3 | V 2.07 | W 3.27 | Y 1.47
R8: A 2.61 | C 1.95 | D 3.19 | E 3 | F 2.09 | G 2.74 | H 3.02 | I 1.94 | K 2.44 | L 3.16 | M 2.68 | N 2.82 | P 2.31 | Q 2.86 | S 2.6 | T 2.44 | V 2.55 | W 1.62 | Y 2.09
K9: A 2.31 | C 2.42 | D 3.42 | E 3.29 | F 2.13 | G 2.51 | H 1.84 | I 2.12 | L 1.97 | M 2.3 | N 2.47 | P 2.76 | Q 2.9 | R 1.87 | S 2.29 | T 2.7 | V 2.35 | W 2.07 | Y 1.76
H10: A 1.86 | C 2.66 | D 3.54 | E 3.02 | F 2.5 | G 3.05 | I 2.79 | K 2.58 | L 1.51 | M 1.94 | N 2.92 | P 2.37 | Q 2.87 | R 1.94 | S 2.36 | T 2.08 | V 1.91 | W 2.49 | Y 1.33
Y11: A 3.38 | C 3.06 | D 3.77 | E 3.98 | F 2.01 | G 3.23 | H 2.93 | I 2.77 | K 3.14 | L 2.75 | M 2.98 | N 3.15 | P 3.14 | Q 3.57 | R 2.56 | S 3.03 | T 3.17 | V 3.22 | W 1.7
Q12: A 1.96 | C 2.08 | D 3.05 | E 2.41 | F 2.28 | G 2.08 | H 2.07 | I 1.97 | K 2.24 | L 2.29 | M 2.34 | N 2.85 | P 2.37 | R 1.88 | S 2.22 | T 2.16 | V 2.36 | W 1.91 | Y 2.46
V13: A 2.76 | C 2.14 | D 3.46 | E 3.61 | F 2.08 | G 2.52 | H 2.84 | I 2.21 | K 2.68 | L 2.69 | M 2.59 | N 2.65 | P 2.34 | Q 3.11 | R 3.24 | S 3.32 | T 2.6 | W 2.23 | Y 2.97
T14: A 1.85 | C 3.13 | D 3.36 | E 2.96 | F 2.57 | G 3.05 | H 2.53 | I 2.12 | K 1.97 | L 1.99 | M 2.05 | N 2.39 | P 2.54 | Q 2.87 | R 2.13 | S 2.03 | V 1.84 | W 1.41 | Y 1.54
G15: A 2.25 | C 2.01 | D 2.31 | E 3.36 | F 1.19 | H 2.63 | I 1.59 | K 2.71 | L 1.51 | M 2.03 | N 2.04 | P 2.86 | Q 1.88 | R 2.02 | S 2.14 | T 2.78 | V 1.44 | W 2.28 | Y 2.44
Y16: A 2.48 | C 2.51 | D 3.66 | E 3.3 | F 1.75 | G 2.9 | H 2.79 | I 2.47 | K 3.2 | L 1.97 | M 2.3 | N 2.43 | P 2.92 | Q 2.26 | R 3.36 | S 2.67 | T 2.53 | V 2.47 | W 1.75
G17: A 1.9 | C 2.41 | D 2.51 | E 2.73 | F 1.79 | H 2.06 | I 1.84 | K 2.13 | L 2.5 | M 1.84 | N 2.03 | P 2.87 | Q 1.75 | R 2.37 | S 1.62 | T 2.24 | V 2.08 | W 2.6 | Y 2.26
I18: A 2.73 | C 2.37 | D 2.9 | E 2.95 | F 2.47 | G 2.2 | H 2.47
